In US5683884 (ZymoGenetics, Inc., dated 1997):
Bridges are numbered along the chain shown (N, C = ends). Where no end group is shown, it is not given here.

What was measured:
[1] = molecular target: T1, human calcitonin receptor (cDNA clone pHollex, from T-47D breast carcinoma cDNA), expressed in transfected BHK cells (human)
T1 sequence: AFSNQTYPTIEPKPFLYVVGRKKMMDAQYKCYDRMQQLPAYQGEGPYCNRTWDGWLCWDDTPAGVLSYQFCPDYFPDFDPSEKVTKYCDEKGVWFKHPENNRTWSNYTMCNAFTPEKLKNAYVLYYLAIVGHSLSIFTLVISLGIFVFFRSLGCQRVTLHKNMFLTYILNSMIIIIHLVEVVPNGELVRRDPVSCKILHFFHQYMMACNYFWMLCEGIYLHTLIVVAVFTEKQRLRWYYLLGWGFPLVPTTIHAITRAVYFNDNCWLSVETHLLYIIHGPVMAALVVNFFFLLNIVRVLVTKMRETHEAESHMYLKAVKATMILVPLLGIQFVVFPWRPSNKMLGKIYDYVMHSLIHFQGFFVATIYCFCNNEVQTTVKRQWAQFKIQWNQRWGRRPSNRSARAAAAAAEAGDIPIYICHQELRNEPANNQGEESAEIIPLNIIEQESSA

[2] = molecular target: T2, human calcitonin receptor (cDNA clone pHollex, from T-47D breast carcinoma cDNA), expressed in transfected … (human); test: 125I calcitonin competition binding on whole cells, clone Hollex1, average
T2 chain: T1 sequence
Protocol: (§1) Clones Hollex1 and Hollex2 were tested for receptor-mediated ability to bind calcitonin using a competition assay. T47D cells were used as a positive control and BHK cells transfected with Zem1698 were used as a negative control.
(§2) The cells were plated at a density of 1×10^5 cells/well in a 24-well cell culture dish and allowed to grow for 48 hours at 37° C. and 5% CO_2 in growth medium (described in previous examples). The cells were rinsed in binding medium (500 ml RPMI 1640 (Sigma, St. Louis, Mo.), 1 mg/ml bacitracin (Sigma), and 1 mg/ml BSA (Boehringer Mannheim)) to remove the serum. Three hundred microliters of binding medium containing radiolabeled ^125I agonist and a serial dilution of unlabeled competitor (Table 1) were added to appropriate wells. The cells were incubated for 1.5 hours at room temperature, and then rinsed 3 times with PBS to remove unincorporated radioactivity. Five hundred microliters of 0.25N NaOH was added to each well to solubilize the cells. The samples were collected from each well and CPMs were counted on a gamma counter.

[3] = molecular target: T3, calcitonin receptor of T-47D human breast carcinoma cells (endogenous, positive control) (human, UniProt P30988); test: 125I calcitonin competition binding on whole T47D cells (positive control), average
T3 sequence: T1 sequence
Protocol: as §1, §2

[4] = molecular target: T1, human calcitonin receptor (cDNA clone pHollex, from T-47D breast carcinoma cDNA), expressed in transfected BHK cells (human); remark: listed apart in the source
[5] = molecular target: T2, human calcitonin receptor (cDNA clone …); test: 125I calcitonin competition binding on whole cells, clone Hollex2, average
Protocol: as §1, §2

- ED50 of cAMP induction (Hollex1) [1]: 0.07 nM
- ED50 of cAMP induction (Hollex2) [1]: 0.04 nM
- induction of cAMP (radioimmunoassay, scintillation proximity assay) (fold induction) [1]: 12
- Kd [2]: 0.5 nM
- Kd [3]: 0.6 nM
- ED50 of labeled inositol phosphate levels (Hollex1) [4]: 9.5 nM
- Kd [5]: 0.3 nM
Binder: CSNLSTCVLGKLSQELHKLQTYPRTNTGSGTP-NH2 (ligand, disulfide 1-7; ends not checked; also: also used 125I-labelled as tracer) [salmon calcitonin]
